This note sets out measurements from publication PMC7363131, “Interaction of the Streptomyces Wbl protein WhiD with the principal sigma factor σ^HrdB depends on the WhiD [4Fe-4S] cluster” (The Journal of Biological Chemistry, 2020).

This experiment addresses T1, S. venezuelae WhiD (SvWhiD), N-terminally His6-tagged, full length (S. venezuelae, [4Fe-4S] cluster bound as isolated (cluster loading ~90%); cluster-free (apo) form after exposure to O2; N-terminal methionine cleaved).
T1 construct: WhiD of Streptomyces venezuelae, Wbl family [4Fe-4S] protein; codon-optimized gene in pET28a (NdeI/HindIII); His-tagged protein 15,923 Da by LC-MS (predicted 15,924 Da without the N-terminal methionine); The holo ([4Fe-4S]) and apo (cluster-free) forms have the same polypeptide and are kept as one molecule; The assay and the 'only:' limit tell which form was tested; The preparation holds ~10% …
Briefly: native MS; nondenaturing ESI-MS titration; SvWhiD 3 μM with σ^HrdB4 0.75-21 μM, I151A FNR (3 μM) as internal standard, 250 mM ammonium acetate, pH 7.2; fractional saturation against free σ^HrdB4 fitted with a simple binding isotherm. The following applies: both partners purified.

B1: Domain 4 of the S. venezuelae principal sigma factor σ^HrdB (σ^HrdB4), N-terminally His6-tagged (domain or fragment)
chain: PADAVSFTLLQEQLHSVLDTLSEREAGVVSMRFGLTDGQPKTLDEIGKVYGVTRERIRQIESKTMSKLRHPSRSQVLRDYLD
Regarding B1, the Kd came to 740 nM.
